Abundance fitness data for 167 variants are collected here from the Human Domainome abundance scans (Beltran et al. 2025).

± gives the uncertainty stated by the source.

B1: Telomeric repeat-binding factor 2, residues 489 to 542; numbered along this chain, Q15554 (parent)
chain: KQKWTVEESEWVKAGVQKYGEGNWAAISKNYPFVNRTAVMIKDRWRTMKRLGMN

The series covers variants of B1. Briefly: abundance fitness (aPCA) (normalised: wild type 0, dead -1); higher = more abundant; growth selection in yeast, the domain comes from the species named. Conditions: Homo sapiens.
On to R36K, for which the abundance fitness came out at 0.228 ± 0.098.

R36V: the abundance fitness is -0.4 ± 0.051. On to R36H, for which the abundance fitness was -0.649 ± 0.28. Under R36S stands -0.654 ± 0.086. Under R36I stands -0.685 ± 0.33; under R36A, -0.367 ± 0.069.

For R36M, the abundance fitness was -0.693 ± 0.24. Under R36W stands -0.95 ± 0.14; under R36G, -0.816 ± 0.051. Under R36C stands -0.495 ± 0.12; under R36Y, -0.614 ± 0.25. Under R36T stands -0.853 ± 0.25; under R36Q, -0.897 ± 0.28. Turning to A38R, the abundance fitness was -0.575 ± 0.075. For A38P the value was 0.014 ± 0.054; for A38F, -0.334 ± 0.16. In the case of A38W, the abundance fitness worked out at 0.013 ± 0.068. For A38D the value was -0.276 ± 0.08; for A38C, -0.336 ± 0.1; for A38L, -0.372 ± 0.08. With A38S, the abundance fitness was -0.204 ± 0.054. Under A38V stands -0.123 ± 0.047; under A38H, -0.413 ± 0.19; under A38T, 0.188 ± 0.18. A38G: the abundance fitness was -0.371 ± 0.044.

For the variant A38K, the abundance fitness was -0.297 ± 0.1.

Regarding A38Q, the abundance fitness is -0.15 ± 0.11. Turning to A38E, the abundance fitness is -0.126 ± 0.092. For N30Q the value was -0.092 ± 0.18; for N30C, -0.402 ± 0.099; for N30P, -0.963 ± 0.18. Turning to N30W, the abundance fitness is -0.431 ± 0.092. For N30S the value was -0.113 ± 0.058. Under N30E stands 0.077 ± 0.12; under N30T, -0.338 ± 0.22.

As to N30F, the abundance fitness was -0.422 ± 0.2. Under N30R stands -0.508 ± 0.11; under N30K, -0.16 ± 0.088. Turning to N30L, the abundance fitness is -0.287 ± 0.064. For N30M the value was -0.314 ± 0.17. Under N30D stands -0.474 ± 0.18.

Turning to N30Y, the abundance fitness was -0.284 ± 0.082. Under N30A stands -0.042 ± 0.071; under Y31G, -0.499 ± 0.074. Consider Y31C, for which the abundance fitness is -0.49 ± 0.16. Y31N: the abundance fitness is -0.539 ± 0.056. Under Y31P stands -0.389 ± 0.22; under Y31T, -0.727 ± 0.051. Take Y31E: the abundance fitness was -0.757 ± 0.12. For Y31D, the abundance fitness was -0.499 ± 0.28. For Y31R the value was -0.626 ± 0.11; for Y31F, -0.417 ± 0.26. For Y31S the value was -0.729 ± 0.069. Under Y31K stands -0.535 ± 0.13. Turning to Y31M, the abundance fitness is -0.431 ± 0.1.

Consider Y31H, for which the abundance fitness is -0.539 ± 0.094. Under Y31V stands -0.496 ± 0.11; under Y31Q, -0.751 ± 0.05. For Y31W the value was -0.444 ± 0.1.

As for V34I, the abundance fitness is -0.066 ± 0.093. Under V34Y stands -0.331 ± 0.17; under V34H, 0.032 ± 0.11. Under V34M stands 0.208 ± 0.11; under V34W, -0.366 ± 0.12; under V34K, -0.304 ± 0.21. For V34N the value was -0.564 ± 0.22; for V34S, -0.172 ± 0.04. On to V34G, for which the abundance fitness is -0.34 ± 0.043.

With V34D, the abundance fitness is -0.711 ± 0.16.

Consider V34F, for which the abundance fitness was -0.129 ± 0.064. For V34L the value was -0.057 ± 0.071. Under V34E stands 0.005 ± 0.044. For V34Q the value was 0.134 ± 0.17. On to V34T, for which the abundance fitness was found to be 0.193 ± 0.12. Under V34P stands -0.49 ± 0.092; under V34A, -0.16 ± 0.044. Under V34C stands -0.123 ± 0.053. For I27R the value was -0.788 ± 0.055. As to I27A, the abundance fitness is -0.862 ± 0.24. Consider I27H, for which the abundance fitness was -0.235 ± 0.26. For I27S the value was -1.12 ± 0.23; for I27M, -0.561 ± 0.22. For I27V, the abundance fitness was -0.545 ± 0.13. Under I27F stands -0.606 ± 0.35; under I27T, -0.533 ± 0.28; under I27K, -0.757 ± 0.09.

For I27E, the abundance fitness is -0.938 ± 0.26. Under I27G stands -0.901 ± 0.11.

For I27W, the abundance fitness was -0.919 ± 0.24. For I27P the value was -0.87 ± 0.41; for I27L, -0.457 ± 0.1; for W24S, -0.226 ± 0.15.

Regarding W24C, the abundance fitness was -0.982 ± 0.34. Under W24E stands -0.585 ± 0.16; under W24T, -0.705 ± 0.21. W24Q: the abundance fitness was -0.442 ± 0.34. For W24A the value was -0.932 ± 0.49. For W24R the value was -1.15 ± 0.18; for W24I, -0.291 ± 0.27. As to W24D, the abundance fitness was -0.72 ± 0.2. For W24V the value was -1.08 ± 0.23. Under W24K stands -0.788 ± 0.48; under W24F, -0.642 ± 0.23. Under W24G stands -0.596 ± 0.14. As for W24L, the abundance fitness was -0.858 ± 0.18. With W24P, the abundance fitness was -0.89 ± 0.36. Under R44H stands 0.125 ± 0.045. For R44I the value was -0.498 ± 0.081; for R44D, -1.03 ± 0.19; for R44G, -0.466 ± 0.058. For R44W, the abundance fitness is -0.397 ± 0.084. Turning to R44Y, the abundance fitness was -0.218 ± 0.062.

R44N: the abundance fitness was -0.662 ± 0.067. Regarding R44E, the abundance fitness is -0.59 ± 0.093.

As for R44M, the abundance fitness is -0.234 ± 0.076. Under R44S stands -0.508 ± 0.045; under R44F, -0.185 ± 0.048; under R44P, -0.863 ± 0.08. Under R44L stands -0.22 ± 0.04; under R44Q, -0.079 ± 0.051.

For the variant R44C, the abundance fitness is -0.214 ± 0.054. For R44V the value was -0.325 ± 0.055; for R44K, -0.124 ± 0.049. Under R44A stands -0.236 ± 0.048; under K29S, -0.082 ± 0.053; under K29Y, -0.116 ± 0.16.

On to K29H, for which the abundance fitness is -0.042 ± 0.23. On to K29R, for which the abundance fitness is -0.281 ± 0.088. For K29W the value was -0.54 ± 0.13. Regarding K29P, the abundance fitness is -0.626 ± 0.23. Consider K29T, for which the abundance fitness was -0.051 ± 0.12.

With K29A, the abundance fitness is -0.256 ± 0.11.

For the variant K29I, the abundance fitness is -0.221 ± 0.1.

As for K29V, the abundance fitness was -0.066 ± 0.08. For K29N the value was 0.205 ± 0.45; for K29G, -0.364 ± 0.051.

With K29L, the abundance fitness is -0.129 ± 0.076. On to K29C, for which the abundance fitness was found to be 0.162 ± 0.13. Under K29D stands -0.188 ± 0.15; under K29M, -0.091 ± 0.091. For T37C the value was -0.724 ± 0.14. For T37G the value was -0.668 ± 0.063; for T37N, -0.614 ± 0.16; for T37Q, -0.903 ± 0.26. Consider T37P, for which the abundance fitness was -0.404 ± 0.12. In the case of T37V, the abundance fitness is -0.461 ± 0.085. As for T37Y, the abundance fitness is -0.967 ± 0.41.

With T37K, the abundance fitness was -0.789 ± 0.12. For T37I the value was -0.689 ± 0.17; for T37F, -0.629 ± 0.15. Turning to T37M, the abundance fitness is -0.974 ± 0.27. Under T37D stands -0.247 ± 0.082. Take T37L: the abundance fitness was -0.256 ± 0.054. Under T37R stands -0.999 ± 0.093. Under W45E stands -0.571 ± 0.047. For W45C the value was -0.81 ± 0.13; for W45I, -0.65 ± 0.074. For the variant W45F, the abundance fitness was -0.747 ± 0.2.

For the variant W45G, the abundance fitness is -0.982 ± 0.12. As to W45A, the abundance fitness is -0.691 ± 0.06. For I41E the value was -0.975 ± 0.17; for I41C, -0.692 ± 0.15; for I41G, -1.06 ± 0.1.

Consider I41W, for which the abundance fitness is -1.01 ± 0.34. For I41D the value was -0.673 ± 0.16; for I41F, -0.616 ± 0.096; for I41A, -1.02 ± 0.12.
